Data taken from US20140057857A1 (RESEARCH FOUNDATION FOR THE STATE UNIVERSITY OF NEW YORK, published 2014).
Numbered stars: 1 amine (or outer) side, 2 acyl side, 3 side chain; on linkers, the order of the positions; unused ones are H or OH. Bridge positions count the residues as written; N and C are the ends. Square brackets hold non-standard residues; d marks the D form. Ends that are not written are not given here. CH2(3,3'-bipyridine-6,6')CH2 = c1cc(C[*:1])ncc1-c1ccc(C[*:2])nc1; Biphenyl(4,4'-CH2)2 = c1cc(-c2ccc(C[*:2])cc2)ccc1C[*:1]

T1: GST-MDMX containing full-length human MDMX (human, UniProt O15151 1-490)
T1 construct: mature; MDMX', expressed in E. coli as a GST fusion; 'mature' stands for full-length; not shown: GST tag
T1 sequence (looked up): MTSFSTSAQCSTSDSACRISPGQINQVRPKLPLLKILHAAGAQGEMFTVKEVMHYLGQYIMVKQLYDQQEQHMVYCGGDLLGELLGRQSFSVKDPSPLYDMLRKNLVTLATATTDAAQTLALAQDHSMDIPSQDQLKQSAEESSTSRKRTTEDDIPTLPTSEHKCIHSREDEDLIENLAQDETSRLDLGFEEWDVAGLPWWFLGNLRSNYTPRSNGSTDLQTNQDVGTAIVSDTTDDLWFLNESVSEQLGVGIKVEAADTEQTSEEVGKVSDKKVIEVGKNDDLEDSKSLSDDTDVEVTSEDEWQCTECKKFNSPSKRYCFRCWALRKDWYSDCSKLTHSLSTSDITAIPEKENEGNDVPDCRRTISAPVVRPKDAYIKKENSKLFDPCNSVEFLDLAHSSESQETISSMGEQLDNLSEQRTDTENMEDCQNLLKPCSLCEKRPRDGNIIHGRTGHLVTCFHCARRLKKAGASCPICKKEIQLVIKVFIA

B1: PDI analog 3b (Bpy cross-linked D,L-dicysteine peptide) (peptide)
peptide: Ac-LTF[dC]HYWAQLCS-NH2
modifications: linker 4-11 via CH2(3,3'-bipyridine-6,6')CH2
SMILES: CC(=O)N[C@@H](CC(C)C)C(=O)N[C@H](C(=O)N[C@@H](Cc1ccccc1)C(=O)N[C@@H]1CSCc2ccc(cn2)-c2ccc(nc2)CSC[C@@H](C(=O)N[C@@H](CO)C(N)=O)NC(=O)[C@H](CC(C)C)NC(=O)[C@H](CCC(N)=O)NC(=O)[C@H](C)NC(=O)[C@H](Cc2c[nH]c3ccccc23)NC(=O)[C@H](Cc2ccc(O)cc2)NC(=O)[C@H](Cc2c[nH]cn2)NC1=O)[C@@H](C)O
notes: Printed as LTFc"HYWAQLC"S
B2: PDI analog 3a (Bph cross-linked D,L-dicysteine peptide) (peptide)
peptide: Ac-LTF[dC]HYWAQLCS-NH2
modifications: linker 4-11 via Biphenyl(4,4'-CH2)2
SMILES: CC(=O)N[C@@H](CC(C)C)C(=O)N[C@H](C(=O)N[C@@H](Cc1ccccc1)C(=O)N[C@@H]1CSCc2ccc(cc2)-c2ccc(cc2)CSC[C@@H](C(=O)N[C@@H](CO)C(N)=O)NC(=O)[C@H](CC(C)C)NC(=O)[C@H](CCC(N)=O)NC(=O)[C@H](C)NC(=O)[C@H](Cc2c[nH]c3ccccc23)NC(=O)[C@H](Cc2ccc(O)cc2)NC(=O)[C@H](Cc2c[nH]cn2)NC1=O)[C@@H](C)O
notes: Printed as LTFc'HYWAQLC'S
B3: Fluorescein-labeled cross-linked Noxa peptide 6a (peptide)
peptide: AAXLRRIGDXVNLRQKLLN
modifications: N-terminal FITC-Ahx; D-cysteine at position 3; D-Cys 3 and L-Cys 10 cross-linked by Bph; C-terminal amide
notes: also called Fl-6a; Fluo-6a
B4: Fluorescein-labeled cross-linked Noxa peptide 5a (peptide)
peptide: AAXLRRIGDXVNLRQKLLN
modifications: N-terminal FITC-Ahx; Cys 3 and Cys 10 cross-linked by Bph; C-terminal amide
notes: also called Fl-5a; Fluo-5a
B5: Cross-linked Noxa peptide 5a (Bph, L,L-cysteines at 77/84) (peptide)
peptide: AAXLRRIGDXVNLRQKLLN
modifications: Cys 3 and Cys 10 of the peptide (NoxaB 77 and 84) cross-linked by Bph; N-terminal acetyl; C-terminal amide
B6: Cross-linked Noxa peptide 6a (Bph, D-Cys 77 / L-Cys 84) (peptide)
peptide: AAXLRRIGDXVNLRQKLLN
modifications: D-cysteine at position 3; D-Cys 3 and L-Cys 10 cross-linked by Bph; N-terminal acetyl; C-terminal amide
B7: Cross-linked Noxa peptide 5b (Bpy, L,L-cysteines at 77/84) (peptide)
peptide: AAXLRRIGDXVNLRQKLLN
modifications: Cys 3 and Cys 10 of the peptide (NoxaB 77 and 84) cross-linked by Bpy; N-terminal acetyl; C-terminal amide
B8: Cross-linked Noxa peptide 6b (Bpy, D-Cys 77 / L-Cys 84) (peptide)
peptide: AAXLRRIGDXVNLRQKLLN
modifications: D-cysteine at position 3; D-Cys 3 and L-Cys 10 cross-linked by Bpy; N-terminal acetyl; C-terminal amide
B9: Cross-linked Noxa peptide 7a (Bph, L,L-cysteines at 80/87) (peptide)
peptide: Ac-AAQLRCIGDKVNCRQKLLN-NH2
modifications: linker 6-13 via Biphenyl(4,4'-CH2)2
SMILES: CC[C@H](C)[C@@H]1NC(=O)[C@@H](NC(=O)[C@H](CCCNC(=N)N)NC(=O)[C@H](CC(C)C)NC(=O)[C@H](CCC(N)=O)NC(=O)[C@H](C)NC(=O)[C@H](C)NC(C)=O)CSCc2ccc(cc2)-c2ccc(cc2)CSC[C@@H](C(=O)N[C@@H](CCCNC(=N)N)C(=O)N[C@@H](CCC(N)=O)C(=O)N[C@@H](CCCCN)C(=O)N[C@@H](CC(C)C)C(=O)N[C@@H](CC(C)C)C(=O)N[C@@H](CC(N)=O)C(N)=O)NC(=O)[C@H](CC(N)=O)NC(=O)[C@H](C(C)C)NC(=O)[C@H](CCCCN)NC(=O)[C@H](CC(=O)O)NC(=O)CNC1=O
notes: Printed as AAQLRC'IGDKVNC'RQKLLN
B10: PDI analog 3 (linear (D,L)-dicysteine peptide) (peptide)
peptide: LTF[dC]HYWAQLCS-NH2
modifications: not fully specified (N-terminus); printed as LTFcHYWAQLCS; cysteine pairing not given here
notes: not cross-linked; also called peptide 3
B11: PDI analog 4a (Bph cross-linked D,L-dicysteine peptide, two arginines) (peptide)
peptide: Ac-LTF[dC]RYWARLCS-NH2
modifications: linker 4-11 via Biphenyl(4,4'-CH2)2
notes: Printed as LTFc'RYWARLC'S
B12: PDI analog 1 (linear L,L-dicysteine peptide) (peptide)
peptide: Ac-LTFCHYWAQLCS-NH2
modifications: cysteine pairing not given here
notes: not cross-linked; also called peptide 1
B13: PDI analog 1a (Bph cross-linked L,L-dicysteine peptide) (peptide)
peptide: Ac-LTFCHYWAQLCS-NH2
modifications: linker 4-11 via Biphenyl(4,4'-CH2)2
notes: Printed as LTFC'HYWAQLC'S (C' = Bph-linked cysteine)
B14: PDI analog 2a (Bph cross-linked, two arginines) (peptide)
peptide: Ac-LTFCRYWARLCS-NH2
modifications: linker 4-11 via Biphenyl(4,4'-CH2)2
notes: Printed as LTFC'RYWARLC'S
B15: PDI analog 1b (Bpy cross-linked L,L-dicysteine peptide) (peptide)
peptide: Ac-LTFCHYWAQLCS-NH2
modifications: linker 4-11 via CH2(3,3'-bipyridine-6,6')CH2
SMILES: CC(=O)N[C@@H](CC(C)C)C(=O)N[C@H](C(=O)N[C@@H](Cc1ccccc1)C(=O)N[C@H]1CSCc2ccc(cn2)-c2ccc(nc2)CSC[C@@H](C(=O)N[C@@H](CO)C(N)=O)NC(=O)[C@H](CC(C)C)NC(=O)[C@H](CCC(N)=O)NC(=O)[C@H](C)NC(=O)[C@H](Cc2c[nH]c3ccccc23)NC(=O)[C@H](Cc2ccc(O)cc2)NC(=O)[C@H](Cc2c[nH]cn2)NC1=O)[C@@H](C)O
notes: Printed as LTFC"HYWAQLC"S (C" = Bpy-linked cysteine)
B16: PDI analog 2b (Bpy cross-linked, two arginines) (peptide)
peptide: Ac-LTFCRYWARLCS-NH2
modifications: linker 4-11 via CH2(3,3'-bipyridine-6,6')CH2
SMILES: CC(=O)N[C@@H](CC(C)C)C(=O)N[C@H](C(=O)N[C@@H](Cc1ccccc1)C(=O)N[C@H]1CSCc2ccc(cn2)-c2ccc(nc2)CSC[C@@H](C(=O)N[C@@H](CO)C(N)=O)NC(=O)[C@H](CC(C)C)NC(=O)[C@H](CCCNC(=N)N)NC(=O)[C@H](C)NC(=O)[C@H](Cc2c[nH]c3ccccc23)NC(=O)[C@H](Cc2ccc(O)cc2)NC(=O)[C@H](CCCNC(=N)N)NC1=O)[C@@H](C)O
notes: Printed as LTFC"RYWARLC"S
B17: PDI analog 4b (Bpy cross-linked D,L-dicysteine peptide, two arginines) (peptide)
peptide: Ac-LTF[dC]RYWARLCS-NH2
modifications: linker 4-11 via CH2(3,3'-bipyridine-6,6')CH2
SMILES: CC(=O)N[C@@H](CC(C)C)C(=O)N[C@H](C(=O)N[C@@H](Cc1ccccc1)C(=O)N[C@@H]1CSCc2ccc(cn2)-c2ccc(nc2)CSC[C@@H](C(=O)N[C@@H](CO)C(N)=O)NC(=O)[C@H](CC(C)C)NC(=O)[C@H](CCCNC(=N)N)NC(=O)[C@H](C)NC(=O)[C@H](Cc2c[nH]c3ccccc23)NC(=O)[C@H](Cc2ccc(O)cc2)NC(=O)[C@H](CCCNC(=N)N)NC1=O)[C@@H](C)O
notes: Printed as LTFc"RYWARLC"S
B18: Cross-linked Noxa peptide 8a (Bph, alpha-methyl-L-cysteines at 77/84) (peptide)
peptide: AAXLRRIGDXVNLRQKLLN
modifications: alpha-methyl-L-cysteine at positions 3 and 10, cross-linked by Bph; N-terminal acetyl; C-terminal amide

Target: T1, GST-MDMX containing full-length human …
Experiment: competition ELISA, against linear peptide 3

Going from B1 to B2, the “fold increase in MDMX activity” value falls from 24 fold to 15 fold.

Target: GST-Mcl-1
Sequence (Q07820 whole entry): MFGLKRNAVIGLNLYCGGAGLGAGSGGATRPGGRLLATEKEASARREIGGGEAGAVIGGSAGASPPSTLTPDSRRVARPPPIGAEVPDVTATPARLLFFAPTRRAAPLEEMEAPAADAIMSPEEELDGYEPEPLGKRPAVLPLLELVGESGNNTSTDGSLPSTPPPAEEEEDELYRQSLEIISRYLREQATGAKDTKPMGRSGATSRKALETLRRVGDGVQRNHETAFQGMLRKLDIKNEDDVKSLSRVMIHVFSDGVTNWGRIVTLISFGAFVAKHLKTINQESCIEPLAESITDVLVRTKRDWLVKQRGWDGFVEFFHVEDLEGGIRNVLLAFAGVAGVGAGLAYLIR
Experiment: fluorescence polarization assay, Mcl-1 against Bcl-xL

B3 and B4 cannot be ordered by “fold selectivity for Mcl-1 over Bcl-xL” value: > 2000 fold for the first, > 2000 fold for the second.

Target: GST-Mcl-1
Experiment: competitive FP assay, against the parent linear peptide

Going from B5 to B6, the “fold increase in activity” value falls from 67 fold to 37 fold.

Target: GST-Mcl-1
Experiment: ELISA (format not described; target taken to be Mcl-1)

Going from B7 to B8, the IC50 rises from 25 nM to 140 nM (5.6-fold).

Going from B9 to B5, the IC50 rises from 37 nM to 75 nM (2-fold). The first is the more potent here.

B6 gave an IC50 of 260 nM.

Target: GST-Mcl-1
Experiment: fluorescence polarization assay, labeled peptide on GST-Mcl-1

B3 and B4 are within 1.5-fold of each other in Kd: 0.7 nM for the first, 0.8 nM for the second.

Target: GST-Bcl-xL
Sequence (Q07817 whole entry): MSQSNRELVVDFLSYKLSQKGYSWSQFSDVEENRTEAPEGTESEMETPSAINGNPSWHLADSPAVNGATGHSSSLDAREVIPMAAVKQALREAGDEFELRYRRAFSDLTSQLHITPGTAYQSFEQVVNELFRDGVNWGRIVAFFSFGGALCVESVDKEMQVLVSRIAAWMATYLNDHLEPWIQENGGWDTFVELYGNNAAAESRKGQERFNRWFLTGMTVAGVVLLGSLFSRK
Experiment: fluorescence polarization assay, labeled peptide on GST-Bcl-xL

B3 and B4 cannot be ordered by Kd: > 2000 nM for the first, > 2000 nM for the second.

Target: GST-Mcl-1
Experiment: ELISA; the upper end is tied to 5b by Table 3 (25 nM against 340 nM)

B7 was tested, and the “fold improvement over the parent peptide” value was 14 fold.

Target: T2, GST-MDM2 containing full-length human MDM2 (human, UniProt Q00987 1-491)
T2 construct: mature; 'mature' stands for full-length; not shown: GST tag
T2 sequence (Q00987 whole entry): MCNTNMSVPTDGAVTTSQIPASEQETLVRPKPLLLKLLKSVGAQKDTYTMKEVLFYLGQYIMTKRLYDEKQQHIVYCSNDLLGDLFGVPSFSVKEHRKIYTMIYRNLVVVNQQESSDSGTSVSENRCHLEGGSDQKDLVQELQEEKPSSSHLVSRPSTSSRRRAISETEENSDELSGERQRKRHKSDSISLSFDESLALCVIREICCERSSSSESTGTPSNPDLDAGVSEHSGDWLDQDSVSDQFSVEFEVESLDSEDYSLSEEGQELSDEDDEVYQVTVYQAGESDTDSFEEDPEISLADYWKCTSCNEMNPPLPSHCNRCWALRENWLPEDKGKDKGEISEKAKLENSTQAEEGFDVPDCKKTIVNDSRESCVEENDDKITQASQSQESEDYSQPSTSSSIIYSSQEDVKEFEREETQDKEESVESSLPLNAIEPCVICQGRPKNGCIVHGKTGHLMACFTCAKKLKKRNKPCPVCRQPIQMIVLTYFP
Experiment: competition ELISA; reference not named in the sentence (peptide 1 or PDI)

For B10, the “fold increase in MDM2 activity” value was > 3 fold.

Target: T2, GST-MDM2 containing full-length human …
Experiment: competition ELISA: peptide inhibits GST-MDM2 binding to coated His6-p53

First: B11
Second: B1
The IC50 of the first is 39-fold higher: 208 nM for the first, 5.4 nM for the second. The second is the more potent here.

B12 and B13 are within 1.5-fold of each other in IC50: 57 nM for the first, 39 nM for the second.

Going from B14 to B2, the IC50 falls from 244 nM to 8.3 nM (29-fold). The second is the more potent here.

Compared with B10, B15 is 2.7-fold higher in IC50: 13 nM for the first, 35 nM for the second.

Target: T1, GST-MDMX containing full-length human …
Experiment: competition ELISA: peptide inhibits GST-MDMX binding to coated His6-p53

Compared with B11, B16 is 3-fold lower in IC50: 4490 nM for the first, 1520 nM for the second. The second is the more potent here.

Compared with B1, B17 is 82-fold higher in IC50: 14 nM for the first, 1150 nM for the second.

Going from B12 to B13, the IC50 rises from 1850 nM to 4810 nM (2.6-fold). The first is the more potent here.

Compared with B14, B2 is 250-fold lower in IC50: 5520 nM for the first, 22 nM for the second.

Compared with B10, B15 is 2.6-fold higher in IC50: 339 nM for the first, 890 nM for the second. The first is the more potent here.

Target: GST-Mcl-1
Experiment: competitive FP assay: displacement of fluorescein-labeled Bak from GST-Mcl-1

Going from B7 to B8, the IC50 rises from 45 nM to 140 nM (3.1-fold). The first is the more potent here.

Going from B9 to B5, the IC50 falls from 32 nM to 18 nM (1.8-fold). The second is the more potent here.

First: B18
Second: B6
The IC50 of the first is 3.2-fold higher: 230 nM for the first, 73 nM for the second. The second is the more potent here.
